According to US7202212 (BETH ISRAEL DEACONESS MEDICAL CENTER, dated 2007):

Molecular target: T1, mouse α7 subunit of the 20S proteasome, full length (mouse, UniProt O70435 1-255)
T1 construct: also called a7; full length a7 construct
T1 sequence (looked up): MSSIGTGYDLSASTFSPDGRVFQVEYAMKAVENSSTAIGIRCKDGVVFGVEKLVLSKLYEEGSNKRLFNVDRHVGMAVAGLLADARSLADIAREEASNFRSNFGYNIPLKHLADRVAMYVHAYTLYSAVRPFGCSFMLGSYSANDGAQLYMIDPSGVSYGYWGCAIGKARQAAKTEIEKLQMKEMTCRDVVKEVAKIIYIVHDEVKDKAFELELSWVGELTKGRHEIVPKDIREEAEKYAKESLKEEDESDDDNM
Assay: yeast two-hybrid screen of a mouse cDNA library with PR-39 exon 4 as bait
Description: To identify possible intracellular targets of PR-39 peptide action, a yeast two-hybrid screen of mouse cDNA library was performed using the unique 4th exon DNA sequence of porcine PR-39 gene as "bait". […] All four clones encoded overlapping identical cDNA sequences which are highly homologous to the sequence of the human α7 (HC8) subunit of the 20S proteasome (GeneBank accession AF055983).

B1: porcine PR-39 peptide (4th exon, amino acids 131 to 169) in pAS2-1 vector as yeast two-hybrid bait (peptide, not shown: large carriers)
chain: RRRPRPPYLPRPRPPPFFPPRLPPRIPPGFPPRFPPRFP
notes: Bait of the yeast two-hybrid assay; The 39 residues are amino acids 131 to 169 of the porcine precursor; also called PR-39 construct
binding result: binds
